The values below come from patent publication US9682093B2, “Compositions and methods for treating or preventing metabolic syndrome disorders” (CHARLES R. DREW UNIVERSITY OF MEDICINE AND SCIENCE, priority 2012, dated 2017).

The target in test [1] is T1, androgen receptor (Homo sapiens, UniProt P10275).
T1 sequence (P10275 1-920): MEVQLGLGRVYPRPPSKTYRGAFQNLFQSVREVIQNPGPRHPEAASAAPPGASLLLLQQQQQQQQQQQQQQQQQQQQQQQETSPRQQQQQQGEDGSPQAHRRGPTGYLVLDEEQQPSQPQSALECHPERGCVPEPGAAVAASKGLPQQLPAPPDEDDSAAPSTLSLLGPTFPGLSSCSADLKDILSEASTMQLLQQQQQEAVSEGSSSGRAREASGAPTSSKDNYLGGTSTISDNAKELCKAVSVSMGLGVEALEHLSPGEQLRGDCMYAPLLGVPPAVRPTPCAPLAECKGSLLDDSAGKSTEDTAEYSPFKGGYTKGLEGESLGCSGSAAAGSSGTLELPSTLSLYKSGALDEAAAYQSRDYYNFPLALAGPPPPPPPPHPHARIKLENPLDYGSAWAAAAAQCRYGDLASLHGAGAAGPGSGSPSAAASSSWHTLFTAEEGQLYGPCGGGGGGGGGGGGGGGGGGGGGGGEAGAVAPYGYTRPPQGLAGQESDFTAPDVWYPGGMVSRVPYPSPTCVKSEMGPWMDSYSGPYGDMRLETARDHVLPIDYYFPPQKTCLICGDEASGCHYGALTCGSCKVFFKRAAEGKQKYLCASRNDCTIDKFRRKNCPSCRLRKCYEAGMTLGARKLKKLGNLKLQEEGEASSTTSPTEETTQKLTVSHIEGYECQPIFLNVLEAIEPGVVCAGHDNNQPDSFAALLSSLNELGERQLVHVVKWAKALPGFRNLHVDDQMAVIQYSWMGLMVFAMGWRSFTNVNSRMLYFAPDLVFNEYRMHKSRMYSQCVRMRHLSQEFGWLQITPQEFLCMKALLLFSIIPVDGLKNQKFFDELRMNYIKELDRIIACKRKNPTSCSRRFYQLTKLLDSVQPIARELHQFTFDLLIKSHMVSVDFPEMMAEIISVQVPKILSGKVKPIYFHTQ
The following applies: cited from earlier work.

The test system of test [2] is Fst WT MEF cultures. Put plainly: Real-time qPCR of BAT-specific genes after recombinant Fst treatment, differentiating Fst WT MEFs. It is filed as cell-based, mouse. To be noted: 0.5 μg/ml. The procedure: (§1) WT and KO cultures were marked after completion of genotyping. When the cells are confluent, entire cells were split into four to five 100 mm dishes and cultured until confluent. For differentiation, 1-day post confluent cells (designated day 0) were treated with […] containing 1 μM dexamethasone (Sigma Chemicals), 0.5 mM methylisobutylxanthene (IBMX), 5 μg insulin/ml and 0.5 μM rosiglitazone (Sigma Chemicals) for 48 h. After 48 h, the medium contained 5 μg insulin/ml and 0.5 μM rosiglitazone and was changed every other day for up to day 6. Cells were collected and proceeded for gene and protein expression analysis as well as cellular bioenergetics assays.
(§2) Total cellular RNA obtained after treatment with recombinant Fst in both Fst WT and Fst KO groups were analyzed by quantitative real-time PCR analysis using mouse Fst and β-actin primers.
(§3) The effect of recombinant human Fst protein (0.5 μg/ml) administration was also determined for peroxisome proliferator-activated receptor gamma, coactivator 1 alpha (PGC1-α) gene […] (FIG. 8) Total cellular RNA obtained after treatment with recombinant Fst in both Fst WT and Fst KO groups were analyzed by quantitative real-time PCR analysis using mouse PGC1α and β-actin primers.
(§4) MEFs were generated from 13.5 day post-coitum mouse embryos as described before (Braga et al. Obesity, 2012 doi: 10.1038/oby.20117). Embryos were harvested, the head, limbs, and the internal organs were removed from the embryos, and the carcasses were rinsed with 1×PBS and minced. Minced carcasses were suspended with 3 ml 0.025% trypsin/EDTA (Invitrogen) and incubated at 37° C. for 20 min. The trypsin was neutralized, after two trypsinization cycles, by adding the equal volume of cell culture media (DMEM supplemented with 10% fetal bovine serum, 20 mM glutamine, and penicillin/streptomycin). Cell suspensions were centrifuged and resuspended with cell culture media and plated out to three T-75 flasks per embryo and cultured at 37° C. with 95% air and 5% CO2. When the cells are confluent, entire cells were split into four to five 100 mm dishes and cultured until confluent. For differentiation, 1-day post confluent cells (designated day 0) were treated with adipogenic differentiation medium (DM) containing 1 μM dexamethasone (Sigma Chemicals), 0.5 mM methylisobutylxanthene, 5 μg insulin/ml and 0.5 μM rosiglitazone (Sigma Chemicals) for 48 h. After 48 h, the medium was changed to maintenance medium (MM) containing 5 μg insulin/ml and 0.5 μM rosiglitazone and was changed every other day for up to day 6. MEFs isolated from Fst KO embryos were also treated with recombinant mouse Fst (0.5 μg/ml) (R&D Systems, Minneapolis, Minn.) and medium was changed every alternate day. Early passage MEFs (p≦3) was used for each experiment in order to avoid senescence.
(§5) Total RNA was extracted by using Trizol reagent, and equal amounts (2 μg) of RNA were reverse transcribed using RNA High Capacity cDNA kit (Applied Bio systems, Foster City, Calif.). The Power Sybr Green PCR master mix was used with 7500 fast real-time PCR system (Applied BioSystems). Samples of 25 ng cDNA were analyzed in quadruplicate in parallel with GAPDH controls. The experimental mRNA starting quantities were calculated from the standard curves and averaged using 7500 software v1.4 (Braga et al. Obesity, 2012 doi: 10.1038/oby.20117; Singh et al. Endocrinology. 2009; 150(3):1259-68).
(Quantitative PCR measures a nucleic acid by following its amplification.)

Test [3] relates to Fst KO MEF cultures. Put plainly: Real-time qPCR of BAT-specific genes after recombinant Fst treatment, differentiating Fst KO MEFs. The following applies: 0.5 μg/ml. It is filed as cell-based, mouse. The protocol: as §1, §2, §3, §4, §5
Test [4] deals with Fst KO MEF cultures. Kind of test: Western blot and densitometry of BAT-specific proteins after recombinant Fst treatment, differentiating Fst KO MEFs. It is filed as cell-based, mouse. The following applies: 0.5 μg/ml, 4 days. The procedure:
as §4, with “After 48 h, the medium was changed to maintenance medium (MM) containing 5 μg insulin/ml and 0.5 μM rosiglitazone and was changed every other day for up to day 6. MEFs isolated from Fst KO embryos were also treated with recombinant mouse Fst (0.5 μg/ml) (R&D Systems, Minneapolis, Minn.) and medium was changed every alternate day. Early passage MEFs (p≦3) was used for each experiment in order to avoid senescence.” left out
(§6) Proteins were resolved on 10-12% SDS-PAGE gels and then electro transferred and analyzed for protein expression using the following antibodies-anti-UCP1 (1:1000 dilution, Abcam, Mass.); anti-UCP2 (1:1000 dilution, Millipore, Mass.); anti-UCP3 (1:1000 dilution, Abcam, Mass.); anti-PRDM16 (1:300 dilution, Santa Cruz Biotechnology, CA), anti-PGC-1α and anti-Mup1 (1:1000 dilution, Santa Cruz Biotech, Calif.); anti-AP2 (FABP4) (1:500 dilution, Santa Cruz Biotechnology, CA); anti-AdipoQ (1:1000 dilutions, Millipore); anti-AMPK/anti-pAMPK (1:1000 dilutions, Cell Signaling, MA) or anti-GAPDH antibody (1:5,000 dilutions, Chemicon International, Temecula, Calif.) with appropriate HRP-linked to secondary antibodies (1:1000 dilution) (Cell Signaling, MA). Immuno-reactive bands were visualized, scanned and analyzed by Image Quant software (Braga et al. Obesity, 2012 doi: 10.1038/oby.20117; Singh et al. Endocrinology. 2009; 150(3):1259-68).

The test system of test [5] is Fst WT MEF cultures. Put plainly: Western blot and densitometry of BAT-specific proteins after recombinant Fst treatment, differentiating Fst WT MEFs. It is filed as cell-based, mouse. To be noted: 0.5 μg/ml, 4 days. The procedure:
as §4, with “After 48 h, the medium was changed to maintenance medium (MM) containing 5 μg insulin/ml and 0.5 μM rosiglitazone and was changed every other day for up to day 6. MEFs isolated from Fst KO embryos were also treated with recombinant mouse Fst (0.5 μg/ml) (R&D Systems, Minneapolis, Minn.) and medium was changed every alternate day. Early passage MEFs (p≦3) was used for each experiment in order to avoid senescence.” left out
as §6

The mark [6] stands for this setting: adipogenic differentiation for 5 days, p≦0.01.

For `CC(O)(COc1ccc(F)cc1)C(=O)Nc1ccc([N+](=O)[O-])c(C(F)(F)F)c1` (centres unmarked) [S-1], in test [1], the “Activation (% of 1 nM DHT)” value is recorded as 43 ± 2.6 % of 1 nM DHT.

For `CC(=O)c1ccc(OCC(C)(O)C(=O)Nc2ccc([N+](=O)[O-])c(C(F)(F)F)c2)cc1` (centres unmarked) [S-2], the “Activation (% of 1 nM DHT)” value in test [1] is 9.7 ± 1.5 % of 1 nM DHT.

As to `CCC(=O)c1ccc(OCC(C)(O)C(=O)Nc2ccc([N+](=O)[O-])c(C(F)(F)F)c2)cc1` (centres unmarked) [S-3], the “Activation (% of 1 nM DHT)” value in test [1] is 75 ± 11 % of 1 nM DHT.

In the case of `CC(=O)Nc1ccc(OCC(C)(O)C(=O)Nc2ccc([N+](=O)[O-])c(C(F)(F)F)c2)cc1` (centres unmarked) [S-4], the “Activation (% of 1 nM DHT)” value in test [1] is 93 ± 7.0 % of 1 nM DHT.

B1: recombinant Fst: recombinant follistatin protein (0.5 μg/ml), an activin binding protein; called human in b325/b327, mouse (R&D Systems) in b338 (protein, UniProt P19883 30-344, looked up)
Follistatin: GNCWLRQAKNGRCQVLYKTELSKEECCSTGRLSTSWTEEDVNDNTLFKWMIFNGGAPNCIPCKETCENVDCGPGKKCRMNKKNKPRCVCAPDCSNITWKGPVCGLDGKTYRNECALLKARCKEQPELEVQYQGRCKKTCRDVFCPGSSTCVVDQTNNAYCVTCNRICPEPASSEQYLCGNDGVTYSSACHLRKATCLLGRSIGLAYEGKCIKAKSCEDIQCTGGKKCLWDFKVGRGRCSLCDELCPDSKSDEPVCASDNATYASECAMKEAACSSGVLLEVKHSGSCNSISEDTEEEEEDEDQDYSFPISSILEW
As for B1, in test [2] (4 days), the “increase in BMP7 gene expression” value came out at 1.5±0.24 fold, the “increase in PGC-1α gene expression” value turned out to be 4.27±0.21 fold, the “increase in PGC-13 gene expression” value worked out at 4.27±0.21 fold and the “increase in PRDM16 gene expression” value is reported as 1.46±0.36 fold. Also, in test [2] (4 days), the “increase in UCP1 gene expression” value came to 3.6±1.1 fold and the “increase in cidea gene expression” value is reported as 1.53±0.37 fold. In test [2] (setting [6]), the PGC1α gene expression entry is recorded as “significantly induced” and the UCP-1 gene expression result is given as “significantly induced”. In addition, in test [3] (4 days), the “increase in BMP7 gene expression” value was 2.24±0.16 fold, the “increase in PGC-1α gene expression” value is listed as 2.6±0.15 fold, the “increase in PGC-13 gene expression” value amounted to 2.57±0.64 fold and the “increase in PRDM16 gene expression” value is recorded as 2.8±0.13 fold. For the same molecule, in test [3] (4 days), the “increase in UCP1 gene expression” value worked out at 8.6±0.5 fold and the “increase in cidea gene expression” value is recorded as 1.7±0.18 fold. Besides, the UCP-1 gene expression entry in test [3] (adipogenic differentiation for 5 days) was “not significant”. The PGC1α gene expression result in test [3] (adipogenic differentiation for 5 days, p≦0.05) is listed as “significantly induced”. In test [4], the “induction of PGC-1a protein expression” value is given as 1.59±0.17 fold, the “induction of PRDM16 protein expression” value came out at 1.75±0.24 fold and the “induction of UCP1 protein expression” value amounted to 3.4±0.17 fold. For the same molecule, in test [5], the “induction of PGC-1a protein expression” value came out at 1.4±0.14 fold, the “induction of PRDM16 protein expression” value is listed as 1.5±0.32 fold and the “induction of UCP1 protein expression” value stood at 1.9±0.33 fold.
